Laboratory results published in patent US20220333113.
Residue numbers refer to the chain shown, from its start.

Key:
Test in all cases: filter
Settings in all cases: J = PPdU at every J; SB18T0.01 + 1 mM DTT, 37 C
[1] = target: T1, RIG-I D872A (Homo sapiens) (UniProt O95786)
T1 sequence: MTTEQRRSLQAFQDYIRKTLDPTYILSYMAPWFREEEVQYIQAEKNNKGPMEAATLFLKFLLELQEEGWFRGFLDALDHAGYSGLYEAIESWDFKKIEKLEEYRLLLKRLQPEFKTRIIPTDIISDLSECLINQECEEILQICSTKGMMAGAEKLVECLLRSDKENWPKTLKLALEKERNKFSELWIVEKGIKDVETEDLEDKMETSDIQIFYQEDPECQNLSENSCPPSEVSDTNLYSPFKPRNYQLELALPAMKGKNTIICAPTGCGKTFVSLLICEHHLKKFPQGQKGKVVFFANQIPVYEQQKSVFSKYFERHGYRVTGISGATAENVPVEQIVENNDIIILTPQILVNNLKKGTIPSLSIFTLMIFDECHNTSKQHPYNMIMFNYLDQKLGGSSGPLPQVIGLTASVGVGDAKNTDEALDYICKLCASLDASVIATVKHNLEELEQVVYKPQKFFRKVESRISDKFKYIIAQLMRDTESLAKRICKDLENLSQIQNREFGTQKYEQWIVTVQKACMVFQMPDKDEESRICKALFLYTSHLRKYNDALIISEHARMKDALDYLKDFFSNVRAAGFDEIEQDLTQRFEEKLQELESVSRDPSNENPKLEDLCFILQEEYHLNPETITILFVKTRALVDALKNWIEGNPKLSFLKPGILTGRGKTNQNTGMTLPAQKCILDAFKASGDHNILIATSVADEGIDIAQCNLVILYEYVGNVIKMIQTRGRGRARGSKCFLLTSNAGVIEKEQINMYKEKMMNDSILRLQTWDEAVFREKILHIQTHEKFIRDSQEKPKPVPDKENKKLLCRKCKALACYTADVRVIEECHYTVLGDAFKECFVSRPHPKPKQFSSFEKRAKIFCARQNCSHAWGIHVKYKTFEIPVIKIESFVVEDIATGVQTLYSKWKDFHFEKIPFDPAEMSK

[2] = target: T2, RIG-I K849A (Homo sapiens) (UniProt O95786)
T2 sequence: T1 sequence with K849A, A872D

[3] = target: T3, RIG-I H847A (Homo sapiens) (UniProt O95786)
T3 sequence: T1 sequence with H847A, A872D

Sequence “ATCTCTGTGTCATGTGTTTTAATGTCAGTTTAATGATGAGG [14832-55_8]” has a Kd [1] of 0.61 nM, a Kd [2] of 0.62 nM and a Kd [3] of 9.9 nM.
